Series [1] addresses soluble disulfide-stabilized HIV-1 CA hexamer (A14C/E45C/W184A/M185A) (Human immunodeficiency virus type 1 group M subtype B, UniProt P12493, A146C/E177C/M317A/W316A). Put plainly: biochemical. Format: binding.
Series [2] has as its target soluble, disulfide-crosslinked HIV-1 CA hexamer (A14C/E45C/W184A/M185A) (HIV-1). Put plainly: nanoDSF. In general terms: DSF heats the sample and reads unfolding from a dye or from intrinsic fluorescence.
In series [3] the target is disulfide-crosslinked A14C/E45C HIV-1 CA tubes (HIV-1). Kind of series: co-sedimentation.
In series [4] the target is soluble, disulfide-crosslinked HIV-1 CA hexamer (A14C/E45C/W184A/M185A) (HIV-1). Kind of series: cryo-EM structure.
Series [5] has the same target. Kind of series: nanoDSF. This is another data set of the same source.
A short description of series [6]: Observation of proteolysis during protein preparation. Format: physicochemical. The following applies: recombinant protein preparation from E. coli.

Read-outs that look alike come from different tables or passages of the source.

Broadly, the Kd is the concentration at which binding is half-saturated. High values mean weaker binding, low ones tighter binding. For orientation: stoichiometry N means a count of units in the complex or per binding partner.

In the case of Ac-EIIAEDYDDDPVDYE-NH2 [15–6], binding in series [1] was characterised by a dissociation constant (Kd) of 54 ± 0.4 nM.
In series [2], “PQBP1 Nt peptide (residues 1–46) (from UniProt O60828 1-46)” yielded a Kd of 503 nM.
With “full-length recombinant PQBP1 (polyglutamine binding protein 1) (from UniProt O60828 1-265) (natural protein)”, in series [2], the shift in apparent Tm of CA stood at 2 °C. The molecule also came in with a percent of input pelleted with the CA tubes in series [3] of 17%.
In turn, “soluble, disulfide-crosslinked HIV-1 CA hexamer (A14C/E45C/W184A/M185A) (complex)” registered a stoichiometry N in series [4] of 6.
For the molecule Ac-EIIAEDYDDDPVDYE-NH2 [PQBP1 15-mer peptide 15–6], in series [5], the dissociation constant (Kd) stood at 54 nM.

B1: DE-to-G: recombinant DE-to-G PQBP1 mutant protein (protein)
chain: MPLPVALQTRLAKRGILKHLEPEPGGGIIAEDYGGGPVDYEATRLEGLPPSWYKVFDPSCGLPYYWNADTDLVSWLSPHDPNSVVTKSAKKLRSSNADAEEKLDRSHDKSDRGHDKSDRSHEKLDRGHDKSDRGHDKSDRDRERGYDKVDRERERDRERDRDRGYDKADREEGKERRHHRREELAPYPKSKKAVSRKDEELDPMDPSSYSDAPRGTWSTGLPKRNEAKTGADTTAAGPLFQQRPYPSPGAVLRANAEASRTKQQD
modifications: left off: His-tag (with Gly-Gly linker), C-terminal, state not stated
Regarding B1, the “Susceptibility to proteolysis” value in series [6] is on record as “prone to proteolysis”.

The values above are taken from PMC10885737 (Journal of molecular biology, 2023).
